Data: US8828940B2, “Method of treating an ischemia-reperfusion injury-related disorder by administering GPCR ligands” (priority 2006, dated 2014)
Like-named read-outs stand apart in the source and are kept apart here. No end group written: not given here.

Tests used:
FPRL1 = biological target: T1, FPRL1 (Homo sapiens, UniProt P25090); test: Calcium flux in FPRL1-transfected CHO-K1 cells; type: cell-based; set-up: expressed in transfected cells; host or cells: CHO-K1 (ATCC-CCL-61), transient co-transfection; details: for calcium flux (P58 family): dose response, FPRL1 transfected CHO cells; for ability to induce calcium flux (P33 family): 0.1, 1, 10, 100, 1000, 10000 nM
T1 sequence (P25090 1-351): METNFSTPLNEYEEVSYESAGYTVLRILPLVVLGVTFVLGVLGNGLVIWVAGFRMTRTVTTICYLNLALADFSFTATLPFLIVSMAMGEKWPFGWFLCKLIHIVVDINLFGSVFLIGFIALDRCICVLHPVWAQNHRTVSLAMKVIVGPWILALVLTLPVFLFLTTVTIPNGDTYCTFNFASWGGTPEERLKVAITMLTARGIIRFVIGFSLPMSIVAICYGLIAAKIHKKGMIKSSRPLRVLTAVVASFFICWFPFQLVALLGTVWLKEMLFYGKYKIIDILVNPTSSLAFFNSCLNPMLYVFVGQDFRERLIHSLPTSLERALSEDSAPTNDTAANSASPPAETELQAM
Method: (§1) The assay was carried out in CHO cells were transiently transfected with the GPCR of choice, by utilizing the promiscuous Gα16 to divert signaling to the Gq pathway, thus enabling readout of GPCR activation by testing for Calcium flux as described by Liu et al 2003 (Biomol Screen 8, 39-49).
(§2) All the peptides thus obtained were tested for their ability to change calcium flux in CHO-K1 cells (ATCC-CCL-61) transiently co-transfected with an expression vector containing the GPCR of choice and expression vector containing the Gα16 encoding cDNA. Expression constructs containing cDNA clones for MrgX1, MrgX2, Mas or FPRL1 were commercially obtained in one of the following expression vectors: pcDNA3.1, pCMV6, or MO2.
(§3) Transient transfections were performed using CHO-K1 cells as host cells. Cells (12 million) were plated into T75 flasks on the day preceding transfection. Cells were transfected with the appropriate GPCR expression vector and with a vector expressing Gα16 using a lipid-based reagent, MTI, according to the manufacturer's recommendation. Cells were transfected for 5 hours, then re-plated into 96-well dishes (60,000 cells per well) and grown overnight.
On the day of the experiment, cells were loaded with Fluo-4-NW (Invitrogen) according to the manufacturer's recommendation. Plates were loaded into a FlexStation™ (Molecular Devices) plate reader and fluorescence was monitored. […] Each 96 well plate contained cells transfected with one GPCR expression vector and each of the examined peptides was tested in triplicate.
(§4) We defined a hit as a peptide which elicited a clear and distinct increase in intracellular calcium that is clearly visible and statistically significant upon examination of the calcium trace for at least two repeats. The criterion for statistical significance was a p-value lower than 0.001 in a t-test comparing the levels of calcium before and after peptide addition.
The ability of Peptides to change calcium flux was examined in CHO-K1 cells co-transfected with FPRL1 and Gα16.
The P33-derived peptides (see FIG. 1): P33_V (SEQ ID NO:7), P33 (SEQ ID NO:6)-mono, P33 (SEQ ID NO:6)-dimer, P33—5 (SEQ ID NO:27), P33—8 (SEQ ID NO:14), P33—9 (SEQ ID NO:15) and P33—10 (SEQ ID NO:16) were tested for their ability to activate FPRL1 using the calcium flux assay in FPRL1-transfected CHO cells. […] The lack of activity of these peptides might be due to reduced potency; insufficient sensitivity of the experimental system, alternative interaction of the receptor, or activation of other pathways, which are not related to calcium flux. Thus, this interaction should be further characterized.

Mas receptor = biological target: T2, Mas receptor (Homo sapiens, UniProt P04201); test: Calcium flux in Mas-transfected CHO-K1 cells; type: cell-based; details: for ability to induce calcium flux, relative potency (P33 family): 0.1, 1, 10, 100, 1000 and 10000 nM; for ability to induce calcium flux, relative potency (P61 family): dose response, Mas-transfected cells
T2 construct: expressed in transfected cells; host or cells: CHO-K1 (ATCC-CCL-61), transient co-transfection
T2 sequence (P04201 1-325): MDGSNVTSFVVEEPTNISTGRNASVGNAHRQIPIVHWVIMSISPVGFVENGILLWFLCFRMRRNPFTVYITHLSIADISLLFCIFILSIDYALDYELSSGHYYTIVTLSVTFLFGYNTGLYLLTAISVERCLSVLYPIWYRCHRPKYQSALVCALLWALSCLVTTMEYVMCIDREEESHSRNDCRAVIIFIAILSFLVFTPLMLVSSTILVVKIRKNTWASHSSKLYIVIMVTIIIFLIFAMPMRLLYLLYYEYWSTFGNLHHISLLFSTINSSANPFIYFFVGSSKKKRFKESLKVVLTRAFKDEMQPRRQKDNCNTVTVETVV
Method: as §1, §2, §3
On the day of the experiment, cells were loaded with Fluo-4-NW (Invitrogen) according to the manufacturer's recommendation. Plates were loaded into a FlexStation™ (Molecular Devices) plate reader and fluorescence was monitored. Seventeen seconds following initiation of reading, cells were stimulated with the indicated agonist/compound at final concentration of 1 μM. Each 96 well plate contained cells transfected with one GPCR expression vector and each of the examined peptides was tested in triplicate.
as §4
Based on dose response experiments, EC50 best fit values were calculated by non-linear regression of sigmoidal dose-response curves, using Prism version 4 (GraphPad Software Inc., San Diego, Calif.). The formulae for the sigmoidal dose-response curves was defined as Y=Bottom+(Top−Bottom)/(1+10^(Log EC50−X)*HillSlope))
The ability of Peptides to change calcium flux was examined in CHO-K1 cells co-transfected with Mas receptor and Gα16.
The P33 monomer and dimer, as well as other P33 derivative peptides were compared for their ability to induce calcium flux in the Mas-transfected cells at 0.1, 1, 10, 100, 1000 and 10000 nM.

[1] = system: Zymosan-induced murine dorsal air pouch model; type: in vivo, mice; details: 4 h
Method: In order to analyze the ability of P58 to exert in vivo effects via the FPRL1 receptor, an acute experimental model of inflammation, the Zymosan-induced murine dorsal air pouch model, was used.
(§5) Male out-bred Swiss albino mice were purchased from Harlan, UK (T.O. strain) and maintained on a standard chow pellet diet with tap water ad libitum and a 12:00 h light /dark cycle. All animals were housed for 7 days prior to experimentation to allow body weight to reach ˜30 g on the day of the experiment.
Drugs were stored at −20° C. and defrosted on the day of the experiment. Peptide P58 was provided lyophilized; it was taken back to room temperature and dissolved with sterile PBS before use to make an initial 1 mg/ml solution. Peptide Ac2-26 (positive control) was also dissolved with sterile PBS before use to make an initial 1 mg/ml solution. Vehicle consisted of sterile pyrogen free PBS (Gibco, cat no. 14190-094). Once dissolved, P58 (SEQ ID NO:1) and Ac2-26 gave a clear solution. Drugs or vehicle were administered i.v. at a final volume of 200-μl, this volume containing the doses described below.
Lavage fluids were kept all the time on ice, then used to determine the number of migrated leukocytes, by taking an aliquot (100 μl) and diluting it 1:10 in Turk's solution (0.01% crystal violet in 3% acetic acid). The samples were then vortexed and 10 μl of the stained cell solution were placed in a Neubauer haematocymometer. Differential cell count was done using a light microscope (Olympus B061). In view of their chromatic characteristics and their nucleus and cytoplasm appearance, polymorphonuclear leukocytes (PMN; >95% neutrophils) could be easily identified.
For FACS analyses, an aliquot of lavage fluid was stained with the PE-conjugated anti-GR-1 monoclonal antibody (1:100 dilution, BD Biosciences; Cat 553128) to mark polymorphonuclear leukocytes. Staining was performed at 4° C.
Flow cytometry was performed using FACScan analyser (Becton Dickinson, Cowley, UK) with air-cooled 100 mW argon laser tuned to 488 nm connected to an Apple Macintosh G3 computer running Cell Quest II software. Forward and sidescatter characteristics were initially used to distinguish between the three distinct cell populations (lymphocytes, monocytes and granulocytes). Cells positive for GR-1 were detected in the FL2 channel (wavelength of 548 nm). Data are expressed as percentage of positive cells (in relation to the specific mAb). Determination of positive and negative populations was performed based on the control staining with irrelevant IgG isotype (rat IgG2b) labelled with PE. Once determined, quadrants were rigorously maintained for all analyses.
Data are shown for single mice, and also shown as mean±S.E. of (n) mice per group. Statistical differences were determined by ANOVA, plus Student Newman Keuls test. A P value <0.05 was taken as significant.
The anti-inflammatory activity of P58 shorter derivatives was tested in the same model of acute inflammation used in Example 6, the Zymosan-induced murine dorsal air pouch model.
as §5, with “˜25” for “˜30”
Drugs were stored at −20° C. and defrosted on the day of the experiment. Peptide P58 (SEQ ID NO:1) was provided lyophilized; it was taken back to room temperature and dissolved with sterile PBS before use to make an initial 1 mg/ml solution. Peptide P58-4 (SEQ ID NO:2) was provided lyophilized; it was taken back to room temperature and dissolved with sterile PBS before use to make an initial 327 μg/ml solution. Peptide P58-5 (SEQ ID NO:3) was provided lyophilized; it was taken back to room temperature and dissolved with sterile PBS before use to make an initial 476 μg/ml solution. […]

Substance | calcium flux (P58 family) (FPRL1) | ability to induce calcium flux (P33 family) (FPRL1) | ability to induce calcium flux, relative potency (P33 family) (Mas receptor) | further results
WSRAVLFPAAHRP (listed as Homo sapiens) [P33—10] | – | failed to induce calcium flux | induced calcium flux, albeit at a somewhat lower degree compared to P33_V | –
FTSWFM-amide (FTSWFM-NH2; listed as Homo sapiens) [P58—4] | elicited calcium flux | – | – | inhibition of leukocyte accumulation triggered by zymosan A ([1]; Example 7, 20 nmole/mouse i.v.): 35%; inhibition of leukocyte accumulation triggered by zymosan A ([1]; Example 7, 80 nmole/mouse i.v.): 47%; inhibition of zymosan-induced neutrophil (GR-1+) accumulation ([1]; Example 7, 80 nmole/mouse i.v., FACS): 49%
AVLFPAAHRP (listed as Homo sapiens) [P33—5] | – | failed to induce calcium flux | – | –
Ac2-26: a peptide derived from the N-terminus of AnnexinI, known FPRL1 agonist, positive control (AMVSEFLKQAWFIENEEQEYVQTVK) [reference compound] | – | – | – | inhibition of leukocyte accumulation triggered by zymosan A ([1]; Example 6, 200 μg/mouse i.v.): inhibited significantly; inhibition of neutrophil (GR-1+) accumulation triggered by zymosan A ([1]; Example 6, 200 μg/mouse i.v., FACS): 52%
IYLNRKRRGDPAFKRRLRD (listed as Homo sapiens) [P61—4] | – | – | – | ability to induce calcium flux, relative potency (P61 family) (Mas receptor): somewhat weaker
LQKFTSWFM-amide (LQKFTSWFM-NH2; listed as Homo sapiens) [P58—5] | elicited calcium flux | – | – | inhibition of leukocyte accumulation triggered by zymosan A ([1]; Example 7, 20 nmole/mouse i.v.): did not inhibit leukocyte migration; inhibition of zymosan-induced neutrophil (GR-1+) accumulation ([1]; Example 7, 20 nmole/mouse i.v., FACS): weak effect; inhibition of leukocyte accumulation triggered by zymosan A ([1]; Example 7, 80 nmole/mouse i.v.): 29%
SMCHRWSRAVLFPAAHRP [P33_dimer] (also: disulfide dimer via cysteine; listed as Homo sapiens) [Peptide P33_dimer] | – | – | superior to the monomeric peptides | –
HRWSRAVLFPAAHRP (listed as Homo sapiens) [P33—9] | – | failed to induce calcium flux | induced calcium flux, albeit at a somewhat lower degree compared to P33_V | –
SMCHRWSRAVLFPAAHRP [P33_mono] (listed as Homo sapiens) [Peptide P33_mono] | – | similarly potent | equally potent | –
Angiotensin 1-7 [Ang-(1-7), reference compound] | – | – | – | Ca response (Mas receptor; Mas dose response experiment, data not shown): did not induce Ca response
FAFLGYSIYLNRKRRGDPAF (listed as Homo sapiens) [P61—11S] | – | – | – | ability to induce calcium flux, relative potency (P61 family) (Mas receptor): as potent as P61_S
RWSRAVLFPAAHRP (listed as Homo sapiens) [P33—8] | – | failed to induce calcium flux | induced calcium flux, albeit at a somewhat lower degree compared to P33_V | –

Second part, led by results:

calcium flux (P58 family) (FPRL1) | ability to induce calcium flux (P33 family) (FPRL1) | Substance | ability to induce calcium flux, relative potency (P33 family) (Mas receptor) | further results
did not induce calcium flux | – | TIPMFVPESTS (listed as Homo sapiens) [P58—6] | – | –
did not induce calcium flux | – | TIPMFVPESTSTLQ (listed as Homo sapiens) [P58—12] | – | –
elicited calcium flux | – | TIPMFVPESTSTLQKFTSWFM-amide (TIPMFVPESTSTLQKFTSWFM-NH2; listed as Homo sapiens) [P58—10] | – | –
did not induce calcium flux | – | TIPMFVPESTSKLQ (listed as Homo sapiens) [P58—7] | – | –
